The experiment addresses D614G-Hexapro (WT) spike ectodomain (SARS-CoV-2 Wuhan-Hu-1 D614G, D614G). The experiment in a line: BLI. In general terms: Biolayer interferometry detects binding as a change in optical thickness at a sensor tip.

B1: 0304-IN3_T65G (antibody, V domains shown)
VH: QVQLQQWGPGLVNPSETLSLTCSVSGGSFATENYYWSWIRQHPGEGLEWIGNIYFSGNGYYNPSLNNRFTISFDTSKNHLSLKLPSVTAADTAVYYCARGTIYFDISGYRRVDPFHIWGQGTMVIVSS
VL: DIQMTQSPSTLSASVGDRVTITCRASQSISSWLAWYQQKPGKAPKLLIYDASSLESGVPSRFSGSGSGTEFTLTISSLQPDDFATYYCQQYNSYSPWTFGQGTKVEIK
notes: source: Expi293F, transfected
For B1, the Kd (in general, the free concentration of one partner at which half of the binding sites on the other are occupied at equilibrium, for simple one-to-one binding) is 0.0454 µM; the koff (in general, the first-order rate constant of dissociation) is 0.000221 s⁻¹; the kon (commonly the rate constant with which the complex forms) was determined as 4880 M⁻¹ s⁻¹.

B2: 0322-LN3_T65F (antibody, V domains shown)
VH: QVQLQQWGPGLVNPSETLSLTCSVSGGSFATENYYWSWIRQHPGEGLEWIGNIYFSGNFYYNPSLNNRFTISFDTSKNHLSLKLPSVTAADTAVYYCARGTIYFDLSGYRRVDPFHIWGQGTMVIVSS
VL: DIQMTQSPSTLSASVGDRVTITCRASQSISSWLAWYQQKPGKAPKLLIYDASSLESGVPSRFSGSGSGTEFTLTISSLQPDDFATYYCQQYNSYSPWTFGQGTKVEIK
notes: source: Expi293F, transfected
Consider B2, for which the Kd came out at 0.00252 µM, the koff was 0.000726 s⁻¹ and the kon stood at 288000 M⁻¹ s⁻¹.

B3: 0369-N3_T65Q (antibody, V domains shown)
VH: QVQLQQWGPGLVNPSETLSLTCSVSGGSFATENYYWSWIRQHPGEGLEWIGNIYFSGNQYYNPSLNNRFTISFDTSKNHLSLKLPSVTAADTAVYYCARGTIYFDRSGYRRVDPFHIWGQGTMVIVSS
VL: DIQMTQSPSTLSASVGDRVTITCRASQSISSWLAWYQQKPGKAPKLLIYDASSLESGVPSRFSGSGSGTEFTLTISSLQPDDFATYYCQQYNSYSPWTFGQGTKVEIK
notes: source: Expi293F, transfected
On to B3, for which the Kd amounted to 0.0654 µM, the koff turned out to be 0.000113 s⁻¹ and the kon stood at 1730 M⁻¹ s⁻¹.

B4: 0321-LN3_T65E (antibody, V domains shown)
VH: QVQLQQWGPGLVNPSETLSLTCSVSGGSFATENYYWSWIRQHPGEGLEWIGNIYFSGNEYYNPSLNNRFTISFDTSKNHLSLKLPSVTAADTAVYYCARGTIYFDLSGYRRVDPFHIWGQGTMVIVSS
VL: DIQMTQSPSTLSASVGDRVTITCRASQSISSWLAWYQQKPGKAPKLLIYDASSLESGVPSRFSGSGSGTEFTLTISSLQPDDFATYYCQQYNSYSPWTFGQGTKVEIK
notes: source: Expi293F, transfected
Turning to B4, the Kd is 0.378 µM, the koff is 0.00157 s⁻¹ and the on-rate constant (kon) was 4150 M⁻¹ s⁻¹.

B5: 0365-N3_T65L (antibody, V domains shown)
VH: QVQLQQWGPGLVNPSETLSLTCSVSGGSFATENYYWSWIRQHPGEGLEWIGNIYFSGNLYYNPSLNNRFTISFDTSKNHLSLKLPSVTAADTAVYYCARGTIYFDRSGYRRVDPFHIWGQGTMVIVSS
VL: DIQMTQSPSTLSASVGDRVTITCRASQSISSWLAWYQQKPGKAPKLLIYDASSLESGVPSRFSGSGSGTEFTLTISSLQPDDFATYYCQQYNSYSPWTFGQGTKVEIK
notes: source: Expi293F, transfected
The molecule B5 gave an equilibrium dissociation constant (Kd) of 0.387 µM, a koff of 0.000123 s⁻¹ and a kon of 318 M⁻¹ s⁻¹.

B6: 0375-N3_T65Y (antibody, V domains shown)
VH: QVQLQQWGPGLVNPSETLSLTCSVSGGSFATENYYWSWIRQHPGEGLEWIGNIYFSGNYYYNPSLNNRFTISFDTSKNHLSLKLPSVTAADTAVYYCARGTIYFDRSGYRRVDPFHIWGQGTMVIVSS
VL: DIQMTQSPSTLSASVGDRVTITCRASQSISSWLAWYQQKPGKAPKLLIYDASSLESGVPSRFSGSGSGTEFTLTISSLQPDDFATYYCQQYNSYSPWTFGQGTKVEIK
notes: source: Expi293F, transfected
B6 registered an association rate constant (kon) of 265 M⁻¹ s⁻¹.

B7: 0390-YN3_T65S (antibody, V domains shown)
VH: QVQLQQWGPGLVNPSETLSLTCSVSGGSFATENYYWSWIRQHPGEGLEWIGNIYFSGNSYYNPSLNNRFTISFDTSKNHLSLKLPSVTAADTAVYYCARGTIYFDYSGYRRVDPFHIWGQGTMVIVSS
VL: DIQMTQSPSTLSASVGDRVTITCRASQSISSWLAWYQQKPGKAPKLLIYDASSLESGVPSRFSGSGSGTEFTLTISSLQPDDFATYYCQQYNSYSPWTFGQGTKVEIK
notes: source: Expi293F, transfected
Take B7: the affinity, expressed as Kd, was 0.83 µM; the koff is 0.00105 s⁻¹; the kon was 1270 M⁻¹ s⁻¹.

B8: 0364-N3_T65K (antibody, V domains shown)
VH: QVQLQQWGPGLVNPSETLSLTCSVSGGSFATENYYWSWIRQHPGEGLEWIGNIYFSGNKYYNPSLNNRFTISFDTSKNHLSLKLPSVTAADTAVYYCARGTIYFDRSGYRRVDPFHIWGQGTMVIVSS
VL: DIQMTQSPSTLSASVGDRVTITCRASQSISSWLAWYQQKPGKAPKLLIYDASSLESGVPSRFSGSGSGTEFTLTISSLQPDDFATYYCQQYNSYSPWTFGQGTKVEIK
notes: source: Expi293F, transfected
B8 returned a Kd of 0.288 µM, a koff of 9.92e-05 s⁻¹ and a kon of 344 M⁻¹ s⁻¹.

B9: 0382-YN3_T65I (antibody, V domains shown)
VH: QVQLQQWGPGLVNPSETLSLTCSVSGGSFATENYYWSWIRQHPGEGLEWIGNIYFSGNIYYNPSLNNRFTISFDTSKNHLSLKLPSVTAADTAVYYCARGTIYFDYSGYRRVDPFHIWGQGTMVIVSS
VL: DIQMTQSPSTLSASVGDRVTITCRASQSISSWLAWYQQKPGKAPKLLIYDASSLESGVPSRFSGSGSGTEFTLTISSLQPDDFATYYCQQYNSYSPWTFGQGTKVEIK
notes: source: Expi293F, transfected
B9 came in with a Kd of 2.69 µM, a koff of 0.000811 s⁻¹ and a kon of 302 M⁻¹ s⁻¹.

B10: 0357-N3_T65A (antibody, V domains shown)
VH: QVQLQQWGPGLVNPSETLSLTCSVSGGSFATENYYWSWIRQHPGEGLEWIGNIYFSGNAYYNPSLNNRFTISFDTSKNHLSLKLPSVTAADTAVYYCARGTIYFDRSGYRRVDPFHIWGQGTMVIVSS
VL: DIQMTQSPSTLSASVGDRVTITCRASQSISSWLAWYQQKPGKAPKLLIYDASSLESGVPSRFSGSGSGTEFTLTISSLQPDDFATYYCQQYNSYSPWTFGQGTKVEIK
notes: source: Expi293F, transfected
B10: the Kd is 0.000562 µM, the koff came to 0.000124 s⁻¹ and the association rate constant (kon) is 221000 M⁻¹ s⁻¹.

B11: 0389-YN3_T65R (antibody, V domains shown)
VH: QVQLQQWGPGLVNPSETLSLTCSVSGGSFATENYYWSWIRQHPGEGLEWIGNIYFSGNRYYNPSLNNRFTISFDTSKNHLSLKLPSVTAADTAVYYCARGTIYFDYSGYRRVDPFHIWGQGTMVIVSS
VL: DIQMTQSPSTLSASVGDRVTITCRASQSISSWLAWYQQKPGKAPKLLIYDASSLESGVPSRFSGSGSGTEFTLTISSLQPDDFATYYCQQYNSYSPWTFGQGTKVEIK
notes: source: Expi293F, transfected
B11 showed a Kd of 0.839 µM, a koff of 0.00107 s⁻¹ and a kon of 1280 M⁻¹ s⁻¹.

B12: 0366-N3_T65M (antibody, V domains shown)
VH: QVQLQQWGPGLVNPSETLSLTCSVSGGSFATENYYWSWIRQHPGEGLEWIGNIYFSGNMYYNPSLNNRFTISFDTSKNHLSLKLPSVTAADTAVYYCARGTIYFDRSGYRRVDPFHIWGQGTMVIVSS
VL: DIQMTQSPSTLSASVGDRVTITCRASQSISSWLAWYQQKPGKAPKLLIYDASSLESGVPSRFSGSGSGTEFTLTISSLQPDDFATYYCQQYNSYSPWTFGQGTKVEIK
notes: source: Expi293F, transfected
Molecule B12 registered a Kd of 0.00815 µM, a koff of 2.08e-06 s⁻¹ and a kon of 255 M⁻¹ s⁻¹.

B13: 0361-N3_T65G (antibody, V domains shown)
VH: QVQLQQWGPGLVNPSETLSLTCSVSGGSFATENYYWSWIRQHPGEGLEWIGNIYFSGNGYYNPSLNNRFTISFDTSKNHLSLKLPSVTAADTAVYYCARGTIYFDRSGYRRVDPFHIWGQGTMVIVSS
VL: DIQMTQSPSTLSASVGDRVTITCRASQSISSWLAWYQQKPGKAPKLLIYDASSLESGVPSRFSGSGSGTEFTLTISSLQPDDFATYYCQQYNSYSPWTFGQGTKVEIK
notes: source: Expi293F, transfected
For B13, binding was characterised by a dissociation constant (Kd) of 0.549 µM, the koff was 0.000177 s⁻¹ and the kon amounted to 323 M⁻¹ s⁻¹.

B14: 0339-MN3_T65D (antibody, V domains shown)
VH: QVQLQQWGPGLVNPSETLSLTCSVSGGSFATENYYWSWIRQHPGEGLEWIGNIYFSGNDYYNPSLNNRFTISFDTSKNHLSLKLPSVTAADTAVYYCARGTIYFDMSGYRRVDPFHIWGQGTMVIVSS
VL: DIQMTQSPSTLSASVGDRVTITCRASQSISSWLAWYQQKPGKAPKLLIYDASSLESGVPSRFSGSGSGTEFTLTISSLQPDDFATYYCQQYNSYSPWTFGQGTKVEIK
notes: source: Expi293F, transfected
B14 showed a Kd of 0.00595 µM, a koff of 2e-05 s⁻¹ and a kon of 3350 M⁻¹ s⁻¹.

B15: 0384-YN3_T65L (antibody, V domains shown)
VH: QVQLQQWGPGLVNPSETLSLTCSVSGGSFATENYYWSWIRQHPGEGLEWIGNIYFSGNLYYNPSLNNRFTISFDTSKNHLSLKLPSVTAADTAVYYCARGTIYFDYSGYRRVDPFHIWGQGTMVIVSS
VL: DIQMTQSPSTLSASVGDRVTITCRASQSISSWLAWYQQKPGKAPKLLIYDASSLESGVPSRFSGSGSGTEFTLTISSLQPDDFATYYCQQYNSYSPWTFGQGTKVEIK
notes: source: Expi293F, transfected
The molecule B15 gave a Kd of 0.00426 µM, a koff of 0.000957 s⁻¹ and a kon of 225000 M⁻¹ s⁻¹.

B16: 0320-LN3_T65D (antibody, V domains shown)
VH: QVQLQQWGPGLVNPSETLSLTCSVSGGSFATENYYWSWIRQHPGEGLEWIGNIYFSGNDYYNPSLNNRFTISFDTSKNHLSLKLPSVTAADTAVYYCARGTIYFDLSGYRRVDPFHIWGQGTMVIVSS
VL: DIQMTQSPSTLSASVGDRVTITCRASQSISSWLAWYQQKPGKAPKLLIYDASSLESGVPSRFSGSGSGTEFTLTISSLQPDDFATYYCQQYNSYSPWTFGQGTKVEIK
notes: source: Expi293F, transfected
In turn, B16 had a Kd of 0.226 µM, an off-rate (koff) of 0.000716 s⁻¹ and a kon of 3160 M⁻¹ s⁻¹.

B17: 0336-LN3_T65W (antibody, V domains shown)
VH: QVQLQQWGPGLVNPSETLSLTCSVSGGSFATENYYWSWIRQHPGEGLEWIGNIYFSGNWYYNPSLNNRFTISFDTSKNHLSLKLPSVTAADTAVYYCARGTIYFDLSGYRRVDPFHIWGQGTMVIVSS
VL: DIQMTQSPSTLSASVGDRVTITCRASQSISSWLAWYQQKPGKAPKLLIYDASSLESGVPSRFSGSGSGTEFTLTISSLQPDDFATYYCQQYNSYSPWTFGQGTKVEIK
notes: source: Expi293F, transfected
In the case of B17, the Kd is 0.00015 µM, the dissociation rate constant (koff) turned out to be 0.000117 s⁻¹ and the kon was 782000 M⁻¹ s⁻¹.

B18: 0368-N3_T65P (antibody, V domains shown)
VH: QVQLQQWGPGLVNPSETLSLTCSVSGGSFATENYYWSWIRQHPGEGLEWIGNIYFSGNPYYNPSLNNRFTISFDTSKNHLSLKLPSVTAADTAVYYCARGTIYFDRSGYRRVDPFHIWGQGTMVIVSS
VL: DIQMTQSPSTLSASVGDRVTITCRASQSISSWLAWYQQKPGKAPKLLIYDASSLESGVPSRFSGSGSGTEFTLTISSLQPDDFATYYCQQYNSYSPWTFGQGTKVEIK
notes: source: Expi293F, transfected
Turning to B18, the Kd is 0.0529 µM, the koff amounted to 0.000253 s⁻¹ and the kon came to 4790 M⁻¹ s⁻¹.

B19: 0325-LN3_T65I (antibody, V domains shown)
VH: QVQLQQWGPGLVNPSETLSLTCSVSGGSFATENYYWSWIRQHPGEGLEWIGNIYFSGNIYYNPSLNNRFTISFDTSKNHLSLKLPSVTAADTAVYYCARGTIYFDLSGYRRVDPFHIWGQGTMVIVSS
VL: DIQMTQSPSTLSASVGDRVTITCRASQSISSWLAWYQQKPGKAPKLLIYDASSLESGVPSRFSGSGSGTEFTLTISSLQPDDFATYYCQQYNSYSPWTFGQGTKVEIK
notes: source: Expi293F, transfected
B19 registered a Kd of 0.00657 µM, a koff of 0.00131 s⁻¹ and an on-rate (kon) of 199000 M⁻¹ s⁻¹.

B20: 0393-YN3_T65W (antibody, V domains shown)
VH: QVQLQQWGPGLVNPSETLSLTCSVSGGSFATENYYWSWIRQHPGEGLEWIGNIYFSGNWYYNPSLNNRFTISFDTSKNHLSLKLPSVTAADTAVYYCARGTIYFDYSGYRRVDPFHIWGQGTMVIVSS
VL: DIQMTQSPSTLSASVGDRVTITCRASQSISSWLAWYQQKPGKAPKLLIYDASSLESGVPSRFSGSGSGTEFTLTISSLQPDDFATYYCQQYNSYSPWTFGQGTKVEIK
notes: source: Expi293F, transfected
B20 gave a Kd of 0.189 µM, a koff of 0.000535 s⁻¹ and an on-rate constant (kon) of 2840 M⁻¹ s⁻¹.

B21: 0385-YN3_T65M (antibody, V domains shown)
VH: QVQLQQWGPGLVNPSETLSLTCSVSGGSFATENYYWSWIRQHPGEGLEWIGNIYFSGNMYYNPSLNNRFTISFDTSKNHLSLKLPSVTAADTAVYYCARGTIYFDYSGYRRVDPFHIWGQGTMVIVSS
VL: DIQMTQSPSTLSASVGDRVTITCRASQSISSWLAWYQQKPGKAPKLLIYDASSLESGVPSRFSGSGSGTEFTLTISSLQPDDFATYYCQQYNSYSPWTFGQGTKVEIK
notes: source: Expi293F, transfected
B21 showed a Kd of 0.00993 µM, a koff of 0.00157 s⁻¹ and a kon of 158000 M⁻¹ s⁻¹.

B22: 0328-LN3_T65M (antibody, V domains shown)
VH: QVQLQQWGPGLVNPSETLSLTCSVSGGSFATENYYWSWIRQHPGEGLEWIGNIYFSGNMYYNPSLNNRFTISFDTSKNHLSLKLPSVTAADTAVYYCARGTIYFDLSGYRRVDPFHIWGQGTMVIVSS
VL: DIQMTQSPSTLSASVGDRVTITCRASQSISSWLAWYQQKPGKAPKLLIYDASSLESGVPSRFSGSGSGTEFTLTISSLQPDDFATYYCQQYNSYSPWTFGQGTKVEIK
notes: source: Expi293F, transfected
In turn, B22 showed a Kd of 0.00299 µM, a koff of 0.00124 s⁻¹ and a kon of 415000 M⁻¹ s⁻¹.

B23: 0343-MN3_T65H (antibody, V domains shown)
VH: QVQLQQWGPGLVNPSETLSLTCSVSGGSFATENYYWSWIRQHPGEGLEWIGNIYFSGNHYYNPSLNNRFTISFDTSKNHLSLKLPSVTAADTAVYYCARGTIYFDMSGYRRVDPFHIWGQGTMVIVSS
VL: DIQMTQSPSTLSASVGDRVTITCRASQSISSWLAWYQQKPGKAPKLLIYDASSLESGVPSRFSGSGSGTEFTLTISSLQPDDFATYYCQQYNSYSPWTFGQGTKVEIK
notes: source: Expi293F, transfected
B23: the Kd worked out at 7.76 µM, the dissociation rate constant (koff) was 0.000643 s⁻¹ and the kon came out at 82.8 M⁻¹ s⁻¹.

B24: 0355-MN3_T65W (antibody, V domains shown)
VH: QVQLQQWGPGLVNPSETLSLTCSVSGGSFATENYYWSWIRQHPGEGLEWIGNIYFSGNWYYNPSLNNRFTISFDTSKNHLSLKLPSVTAADTAVYYCARGTIYFDMSGYRRVDPFHIWGQGTMVIVSS
VL: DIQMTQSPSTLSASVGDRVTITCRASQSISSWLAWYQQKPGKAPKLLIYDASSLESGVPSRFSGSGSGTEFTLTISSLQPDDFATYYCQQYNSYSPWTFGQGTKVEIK
notes: source: Expi293F, transfected
Molecule B24 displayed a Kd of 0.000474 µM, a koff of 0.00041 s⁻¹ and a kon of 865000 M⁻¹ s⁻¹.

B25: 0323-LN3_T65G (antibody, V domains shown)
VH: QVQLQQWGPGLVNPSETLSLTCSVSGGSFATENYYWSWIRQHPGEGLEWIGNIYFSGNGYYNPSLNNRFTISFDTSKNHLSLKLPSVTAADTAVYYCARGTIYFDLSGYRRVDPFHIWGQGTMVIVSS
VL: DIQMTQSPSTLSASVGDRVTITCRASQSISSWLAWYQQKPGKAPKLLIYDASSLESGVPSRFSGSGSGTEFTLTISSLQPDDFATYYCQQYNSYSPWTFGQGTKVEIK
notes: source: Expi293F, transfected
Molecule B25 displayed a Kd of 0.145 µM, a koff of 0.000932 s⁻¹ and a kon of 6420 M⁻¹ s⁻¹.

B26: 0376-YN3_T65A (antibody, V domains shown)
VH: QVQLQQWGPGLVNPSETLSLTCSVSGGSFATENYYWSWIRQHPGEGLEWIGNIYFSGNAYYNPSLNNRFTISFDTSKNHLSLKLPSVTAADTAVYYCARGTIYFDYSGYRRVDPFHIWGQGTMVIVSS
VL: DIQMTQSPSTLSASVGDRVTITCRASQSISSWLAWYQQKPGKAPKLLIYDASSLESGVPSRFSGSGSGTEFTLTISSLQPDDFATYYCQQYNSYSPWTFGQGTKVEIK
notes: source: Expi293F, transfected
Consider B26, for which the Kd came to 0.00182 µM, the koff worked out at 0.000425 s⁻¹ and the kon worked out at 233000 M⁻¹ s⁻¹.

Values taken from paper PMC10713552 (Communications Biology, 2023).
